According to the supplement of paper PMC10567573:

B1: RAB40A (parent)
chain: NWLGRPSKVLSLQDLCCRTIVSCT

Variants of: B1
Assay: protein stability index of a GFP-peptide fusion (GPS, HEK-293T) (PSI 1-6); higher = more stable
Conditions: c terminus: a fixed tail appended
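Further: lentivirally expressed fusions sorted by FACS into six bins by GFP to DsRed ratio, PSI derived from sequencing read proportions per bin multiplied by bin number.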

Protein stability index, by site and new letter:
Q13: R 3.23, H 2.62, D 1.61, M 2.12, G 2.21, C 2.42, Y 2.42, W 2.82, E 2.41, S 2.67, A 2.86, P 1.68, N 1.8, T 2.51, K 2.86, V 2.81, I 2.93, F 2.75, L 2.44
L12: Y 3.31, T 1.81, V 2.87, R 2.23, F 2.75, G 3.06, H 2.31, W 2.25, E 1.8, M 1.95, D 1.8, P 1.48, A 1.38, N 1.46, I 2.27, C 1.79, K 2.15, Q 2.31, S 1.73
V9: H 2.21, E 2.3, I 2.36, T 2.45, N 2.4, F 1.93, Q 2.2, R 1.85, W 2.16, Y 2.23, D 2.28, G 2.32, C 2.07, M 2.23, P 2.09, K 2.29, S 2.05, L 2.12, A 2.31
K8: V 1.89, Y 1.96, M 1.75, S 2.31, H 2.16, W 2.33, F 2.35, Q 1.97, P 2.29, E 2.26, T 1.88, A 1.98, I 2.11, D 2.1, L 2, N 2.52, R 2.65, G 2.01, C 2.08
S7: I 2.25, L 2.13, C 2.21, E 2.12, M 2.03, D 2.28, A 2.24, N 1.95, P 2.27, F 2.28, Y 1.92, R 2.02, T 2.41, G 2.15, W 1.82, H 1.96, K 2.59, V 2.22, Q 2.47
L10: S 2.57, D 2.31, V 2.09, P 2.62, K 2.35, G 2.64, Q 2.24, M 2.56, T 2.49, C 2.04, N 2.22, A 2.52, E 2.15, F 2.02, Y 2.43, W 1.93, R 2.6, I 2.41, H 2.07
S11: C 1.66, D 1.9, P 2.14, H 1.92, K 2.67, R 2.2, T 2.6, V 2.74, E 2.01, F 1.67, N 2.22, A 1.88, M 1.97, Q 2.11, W 1.77, G 1.54, L 1.86, Y 2.03
P6: S 2.38, D 2.48, V 1.91, K 2.06, T 2.14, G 2.25, I 2.4, Y 1.88, H 2.21, M 1.76, E 2.55, Q 2.06, L 1.76, W 2.11, N 2.66, F 2.17, R 2.29
D14: M 1.58, I 1.48, H 2.13, N 2.29, G 2.45, T 2.11, V 1.72, F 2.14, A 1.99, L 1.67, E 2.54, W 1.84, S 2.07, K 1.9, R 1.51, Q 2.12, C 1.78, P 1.97
